Reference: article PMC9684555, “Structure- and computational-aided engineering of an oxidase to produce isoeugenol from a lignin-derived compound” (Nature Communications, 2022)

Target: the molecule itself
Assay: crystal structure; sitting-drop vapor diffusion at 20 °C; crystals soaked 1 h with 5 mM 4-n-propylguaiacol; 2.9 Å; eight subunits in the asymmetric unit

B1: S394V-EUGO5X mutant of eugenol oxidase (EUGO) from Rhodococcus jostii RHA1 (enzyme)
chain: MTRTLPPGVSDERFDAALQRFRDVVGDKWVLSTADELEAFRDPYPVGAAEANLPSAVVSPESTEQVQDIVRIANEYGIPLHPVSTGKNNGYGGAAPRLSGSVIVKTGERMNRILEVNEKYGYALLEPGVTYFDLYEYLQSHDSGLMLDCPDLGWGSVVGNTLDRGVGYTPYGDHFMWQTGLEVVLPQGEVMRTGMGALPGSDAWQLFPYGFGPFPDGMFTQSNLGIVTKMGIALMQRPPASQSFLITFDKEEDLEQIVDIMLPLRINMAPLQNVPVLRNIFMDAAAVSKRTEWFDGDGPMPAEAIERMKKDLDLGFWNFYGTLYGPPPLIEMYYGMIKEAFGKIPGARFFTHEERDDRGGHVLQDRHKINNGIPSLDELQLLDWVPNGGHIGFVPVSAPDGREAMKQFEMVRNRANEYNKDYMAQFIIGLREMYHVCLFIYDTADPEAREEILQMTKVLVREAAEAGYGEYRTHNALMDDVMATFNWGDGALLKFHEKIKDALDPNGIIAPGKSGIWPQRFRGQNL
modifications: covalently bound FAD cofactor
notes: eugenol oxidase (EUGO), Rhodococcus jostii RHA1, UniProt Q0SBK1; EUGO5X = S81H, A423M, H434Y, I445D, S518P, with S394V added; Tag-less protein after SUMO protease; crystals were soaked with 4-n-propylguaiacol; also called sixfold mutant S394V-EUGO5X; source: E. coli, from pBAD-His-Sumo-S394V-EUGO5X, purified (HisTrap, SUMO protease, reverse nickel, Superdex 200)
Question: Which “stoichiometry N” value does the source give for B1 here?
Answer: 2
